Experiments:
[1] = target: T1, human KIR3DL2 (CD158k), wild type, at the cell surface (human, UniProt P43630 22-455); test: flow cytometry on HUT78 cells after 20 h at 37°C; bound antibody detected with goat anti-human IgG Fc-PE (MdFI GaH-PE); the box prints no unit, the concentration axis is in µg/ml
T1 construct: also called WTaKIR3DL2; un-mutated wild type KIR3DL2
Experimental: (§1) This study aimed to evaluate the impact of a 20 hour incubation with antibody 2B12 on cell surface KIR3DL2 level by observing the amount of bound 2B12 (human IgG1), free (non-antibody bound) cell surface KIR3DL2 polypeptide, and total cell surface KIR3DL2 polypeptide. Briefly, HUT78 (100,000 cells/well) were incubated for 20h at 37° C. with a dose range of 2B12 antibody starting from (decreasing) 8.88 μg/ml, 1/3 serial dilution, 11 concentrations. Dose ranges were made in duplicate in order to perform the following 2 staining conditions: [0317] Total KIR3DL2+bound KIR3DL2 (GaH IgG Fc-PE+mAb2-APC (a non-competing anti-KIR3LD2 mAb) (10 μg/ml) [0318] Free KIR3DL2: 2B12-PE (10 μg/ml).
(§2) Staining was performed at 4° C. in staining buffer for 1h and analyzed with a FACS Canto 11 HTS. The dark line/squares represents antibody 2B12 while the light line/circles represents isotype control. It can be seen that free KIR3DL2 receptors can be detected when incubating cells with 10 μg/ml of 2B12-PE and detecting free receptors with non-competing anti-KIR3DL2 antibody. It can be seen that 2B12-bound KIR3DL2 receptors can be detected by incubating cells with goat anti-human IgG Fc-PE secondary Ab. Both read-outs were correlated, with similar EC₅₀. […]

[2] = target: T1, human KIR3DL2 (CD158k), wild type, at …; test: flow cytometry on live HUT78 cells, 2 h at 37°C in RPMI10%, detection with anti-human-Fc PE, median of fluorescence
Experimental: (§3) This study aimed to evaluate the impact of staining conditions on 2B12 labelling of KIR3DL2-expressing cells, gated on total cells, at 4° C. or 37° C., and with incubation times of 2 hours, 4 hours or 24 hours. Briefly, 100,000 HUT78 cells per well were incubated with a dose range of 2B12 antibody starting from 0.0005 μg/ml to 30 μg/ml (serial dilution 1/3 in complete medium). The protocol used was as follows: incubation 2H; 4H and overnight at 4° C. and 37°; staining in RPMI 10% with or without PFA fixation; 2 washes in SB (150 μl/w); addition of anti-human-Fc PE for 30 min at 4° C.; 2 washes in SB (100 μl/w); and detection using FACS CANTO II.

[3] = target: T1, human KIR3DL2 (CD158k), wild type, at …; test: panel Bound KIR3DL2 - GaH-PE: flow cytometry on HUT78 cells after 24 h at 37°C with 2B12; bound antibody detected with goat anti-human IgG Fc-PE, the concentration axis is in µg/ml
Experimental: (§4) This study aimed to evaluate the dynamics of KIR3DL2 receptor expression by observing the amount of total, free and 2B12-bound KIR3DL2 after different periods of incubation with antibody 2B12. Briefly, HUT78 cells (50,000 cells/well) were incubated for 1h, 24h or 48h at 37° C. in complete medium with 2B12 (human IgG1), dose range starting from 10 μg/ml (decreasing), 1/3 serial dilution, 11 concentrations, or with isotype control (IC), dose range starting (decreasing) from 10 μg/ml, 1/3 serial dilution, 11 concentrations. Dose ranges were made in triplicate in order to perform 3 staining conditions: [0323] Bound KIR3DL2 (30 min at 4° C.): GaH IgG Fc-PE, [0324] Free KIR3DL2+total KIR3DL2 (1h at 4° C.): 2B12-PE (10 μg/ml)+mAb2-APC (non-competing anti-KIR3DL2) (10 μg/ml), [0325] Total KIR3DL2 (1h+30 min at 4° C.): 2B12 (10 μg/ml)+GaH IgG Fc-PE.

[4] = target: T1, human KIR3DL2 (CD158k), wild type, at …; test: cell-based or functional assay
[5] = target: T1, human KIR3DL2 (CD158k), wild type, at …; test: cell-based or functional assay; remark: listed apart in the source
[6] = target: T1, human KIR3DL2 (CD158k), wild type, at …; test: panel Free KIR3DL2 - 2B12-PE: flow cytometry on HUT78 cells after 48 h at 37°C with unlabelled 2B12; loss of free KIR3DL2 detected with 2B12-PE at 10 µg/ml, the concentration axis is in µg/ml
Experimental: as §4

[7] = target: T1, human KIR3DL2 (CD158k), wild type, at …; test: flow cytometry on HUT78 cells after 20 h at 37°C with unlabelled antibody; loss of free KIR3DL2 detected with PE-labelled 2B12 (IPH4102-PE on the sheet) at 10 µg/ml; the box prints no unit, the concentration axis is in µg/ml
Experimental: as §1, §2

[8] = target: T1, human KIR3DL2 (CD158k), wild type, at …; test: flow cytometry on live HUT78 cells, 4 h at 37°C in RPMI10%, detection with anti-human-Fc PE, median of fluorescence
Experimental: as §3

[9] = target: T1, human KIR3DL2 (CD158k), wild type, at …; test: flow cytometry on live HUT78 cells, 24 h at 37°C in RPMI10%, detection with anti-human-Fc PE, median of fluorescence
Experimental: as §3

[10] = target: T1, human KIR3DL2 (CD158k), wild type, at …; test: flow cytometry on live HUT78 cells, 24 h at 4°C in RPMI10%, detection with anti-human-Fc PE, median of fluorescence
Experimental: as §3

[11] = target: T1, human KIR3DL2 (CD158k), wild type, at …; test: panel Free KIR3DL2 - 2B12-PE: flow cytometry on HUT78 cells after 1 h at 37°C with unlabelled 2B12; loss of free KIR3DL2 detected with 2B12-PE at 10 µg/ml, the concentration axis is in µg/ml
Experimental: as §4

[12] = target: T1, human KIR3DL2 (CD158k), wild type, at …; test: panel Bound KIR3DL2 - GaH-PE: flow cytometry on HUT78 cells after 48 h at 37°C with 2B12; bound antibody detected with goat anti-human IgG Fc-PE, the concentration axis is in µg/ml
Experimental: as §4

[13] = target: T1, human KIR3DL2 (CD158k), wild type, at …; test: panel Free KIR3DL2 - 2B12-PE: flow cytometry on HUT78 cells after 24 h at 37°C with unlabelled 2B12; loss of free KIR3DL2 detected with 2B12-PE at 10 µg/ml, the concentration axis is in µg/ml
Experimental: as §4

KIR3DL1 (CD158e1) = target: T2, KIR3DL1 (CD158e1) (UniProt P43629 22-444, limits assumed); test: hybridoma screening (flow cytometry, incl. HEK-293T/KIR3DL1 Domain 0-eGFP)
T2 construct: also called closely related KIR3DL1
Experimental: Antibodies which bind KIR3DL2 but not closely related KIR3DL1 were generated by immunizing mice with recombinant KIR3DL2-Fc fusion protein, described in US patent publication number US-2015-0232556-A1. Supernatant (SN) of the growing hybridomas were tested by flow cytometry on Sezary Syndrome cell lines (HUT78, COU-L) and HEK-293T/KIR3DL2 Domain 0-eGFP. Potentially interesting hybridomas selected from the initial screening were cloned by limiting dilution techniques in 96-wells plates. The secondary screen involved selection of hybridomas of interest by testing supernatants of the subclones by flow cytometry on HUT78, COU-L, HEK-293T/KIR3DL1 Domain 0-eGFP and HEK-293T/KIR3DL2 Domain 0-eGFP. Positive subclones were injected into mice to produce ascitis and antibodies of interest were purified before being tested in a Biacore assay using rec KIR3DL2 chips, followed by various assays formats based on binding to human KIR3DL2-expressing cells.

[14] = target: KIR3DL2 mutant having P14S, S15A and H23S substitutions (human, UniProt P43630 22-455); test: binding to a series of KIR3DL2 mutants
[15] = target: KIR3DL2 mutant having I60N and G62S substitutions (human, UniProt P43630 22-455); test: binding to a series of KIR3DL2 mutants
Chain of KIR3DL2 mutant having I60N and G62S substitutions (P43630 other isoform, or with tags, fused parts or gaps I60N G62S I60N G62S): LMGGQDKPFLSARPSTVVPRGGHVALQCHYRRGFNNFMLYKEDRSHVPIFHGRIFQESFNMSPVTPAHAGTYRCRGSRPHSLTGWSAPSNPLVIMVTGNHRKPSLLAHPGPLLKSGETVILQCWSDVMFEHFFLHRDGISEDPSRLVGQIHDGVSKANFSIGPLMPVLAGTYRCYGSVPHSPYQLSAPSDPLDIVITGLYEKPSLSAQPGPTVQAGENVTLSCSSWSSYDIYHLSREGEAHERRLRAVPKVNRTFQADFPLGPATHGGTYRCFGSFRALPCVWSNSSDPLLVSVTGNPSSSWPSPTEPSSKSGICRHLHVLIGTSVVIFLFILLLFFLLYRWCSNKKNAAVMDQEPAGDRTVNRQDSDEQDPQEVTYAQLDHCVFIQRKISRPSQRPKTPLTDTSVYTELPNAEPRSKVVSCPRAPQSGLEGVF

T1 sequence (P43630 22-455 E158D): as the sequence (P43630 other isoform, or with tags, fused parts or gaps I60N G62S I60N G62S) above, with N60I, S62G counted along it
T2 sequence (P43629 22-444 limits assumed): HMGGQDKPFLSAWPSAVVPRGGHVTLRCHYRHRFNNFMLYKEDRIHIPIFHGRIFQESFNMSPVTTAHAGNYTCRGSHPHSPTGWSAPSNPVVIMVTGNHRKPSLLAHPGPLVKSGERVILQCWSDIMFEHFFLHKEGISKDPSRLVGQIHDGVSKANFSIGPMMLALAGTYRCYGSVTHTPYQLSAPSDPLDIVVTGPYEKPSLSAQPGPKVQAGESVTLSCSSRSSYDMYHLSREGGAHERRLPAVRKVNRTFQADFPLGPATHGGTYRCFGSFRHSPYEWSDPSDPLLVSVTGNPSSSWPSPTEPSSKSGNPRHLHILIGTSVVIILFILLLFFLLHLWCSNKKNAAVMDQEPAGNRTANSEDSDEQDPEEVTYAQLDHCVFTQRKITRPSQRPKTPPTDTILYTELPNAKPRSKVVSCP
Chain of KIR3DL2 mutant having P14S, S15A and H23S substitutions (P43630 other isoform, or with tags, fused parts or gaps P14S S15A H23S P14S S15A H23S): as the sequence (P43630 other isoform, or with tags, fused parts or gaps I60N G62S I60N G62S) above, with P14S, S15A, H23S, N60I, S62G counted along it

Row | EC50 [1] [µg/mL] | EC50 (read off the curve) [2] [µg/mL] | EC50 [3] [µg/mL] | EC50 of the increase of total cell-surface KIR3DL2 on HUT78 cells after 24 h at 37°C, panel Total KIR3DL2 - 2B12+GaH-PE [4] [µg/mL] | EC50 of the increase of total cell-surface KIR3DL2 on HUT78 cells after 24 h at 37°C, panel Total KIR3DL2 - mAb2-APC [4] [µg/mL] | EC50 of the increase of total cell-surface KIR3DL2 on HUT78 cells after 48 h at 37°C, panel Total KIR3DL2 - 2B12+GaH-PE [4] [µg/mL] | EC50 of the increase of total cell-surface KIR3DL2 on HUT78 cells after 48 h at 37°C, panel Total KIR3DL2 - mAb2-APC [4] [µg/mL] | EC50 of the increase of total cell-surface KIR3DL2 on HUT78 cells after 20 h at 37°C, detected with mAb2-APC (axis: MdFI 13E4-APC) [5] [µg/mL] | EC50 [6] [µg/mL] | EC50 [7] [µg/mL] | EC50 (read off the curve) [8] [µg/mL] | EC50 (read off the curve) [9] [µg/mL] | EC50 (read off the curve) [10] [µg/mL] | EC50 [11] [µg/mL] | EC50 [12] [µg/mL] | EC50 [13] [µg/mL] | binding result (KIR3DL1 (CD158e1)) | binding result [14] | binding result [15] | Binder
1 | 0.059 | ~0.1 | 0.0566 | 0.103 | 0.0599 | 0.0454 | 0.042 | 0.0789 | 0.0178 | 0.0588 | ~0.09 | ~0.07 | ~0.04 | 0.104 | 0.0163 | 0.0438 | – | – | – | antibody 2B12 (human IgG1) (antibody, V domains shown, Used as human IgG1 in the HUT78 staining studies (Parts 1-3); also called 2B12-PE) VH: QIQLVQSGPELKKPGETVRISCKASGYTFTTAGMQWVQKTPGKGLKWIGWINSHSGVPKYAEDFKGRFAFSLETSASTAYLQISTLKNEDTATYFCARGGDEGVMDYWGQGTSVTVS VL: DIVMTQSHKFMSTSLGDRVSFTCKASQDVSTAVAWYQQKPGQSPKLLIYWTSTRHTGVPDRFTGSGSGTDYTLTISSVQAEDLALYYCQQHYSTPWTFGGGTKLEIK
2 | – | – | – | – | – | – | – | – | – | – | – | – | – | – | – | – | no binding | binds | no binding | antibody 2B12 (parental, as generated in Example 1) (antibody, V domains shown, From mouse hybridoma; It was detected with goat anti-mouse antibody in the internalization assay) VH: QIQLVQSGPELKKPGETVRISCKASGYTFTTAGMQWVQKTPGKGLKWIGWINSHSGVPKYAEDFKGRFAFSLETSASTAYLQISTLKNEDTATYFCARGGDEGVMDYWGQGTSVTVS VL: DIVMTQSHKFMSTSLGDRVSFTCKASQDVSTAVAWYQQKPGQSPKLLIYWTSTRHTGVPDRFTGSGSGTDYTLTISSVQAEDLALYYCQQHYSTPWTFGGGTKLEIK

Source: patent publication US20210087270A1 (INNATE PHARMA, published 2021)
